This note sets out measurements from US20240115719A1, “COMPOUND OR SALT THEREOF, AND ANTIBODY OBTAINED BY USING THE SAME” (priority 2021, published 2024).

This series in a line: Stability test of ADC mimic in rat plasma (eliminated fluorescent molecules by HPLC/fluorescence detection). Type of series: in vitro ADME. Particulars: ADC mimic 0.1 mg/mL, 37° C. for 4 days vs -80° C. (Day 0 = 100%). The protocol: Blood stability of various ADC mimics was assessed by analyzing the amounts of fluorescent molecules that were reduced from ADC mimic when ADC mimic was incubated in rat blood as described below.
Sterile filtration was performed on 700 μL of rat plasma (Charles River) after ADC mimic was added to it so as to be 0.1 mg/mL. The solution was dispensed into six Eppen tubes in 50 μL portions. Three of the six samples were stored in an incubator set at 37° C. for 4 days. The remaining three were also stored in a −80° C. freezer for 4 days. 100 μL of acetonitrile was added to each sample, and the mixture was vortexed and centrifuged to obtain a precipitate. The resulting supernatant was collected and analyzed by HPLC.
The determination was made using a liquid chromatography/fluorescence detection method to determine the amount of fluorescence molecules that had eliminated from ADC mimic.
A lower rate of increase indicates higher stability in plasma.
Increase in fluorescence intensity of fluorescent molecules eliminated from Example ADC mimic=[(Day=4 fluorescence intensity)−(Day=0 fluorescence intensity)].
Increase in fluorescence intensity of fluorescent molecules eliminated from Control ADC mimic=[(Day=4 fluorescence intensity)−(Day=0 fluorescence intensity)].
Carboxyrhodamine 110-PEG4-DBCO was separately used to calculate the colleration between area-area of fluorescent intensity and concentration for HPLC. An increase in the fluorescent intensity of the respective ADC mimic was converted into a concentration by using the calculation equation. When the concentration of Day 0 was taken as 100%, the percentage of the concentration of the above increase was calculated as the elimination rate.

Molecules are shown by their SMILES. Some results are limits rather than exact numbers.

As for `CCCNC(=O)c1cc(N=[N+]=[N-])cc(C(=O)NO)c1` [compound 93], the “Elimination rate of fluorescence molecule at Day = 4” value (shortened to “Elimination rate”) was under 3%.

As for `CCCNC(=O)CC[C@H](NC(=O)CCCCN=[N+]=[N-])C(=O)NO` [compound 96], the “Elimination rate” value was under 3%.

`CCCNC(=O)CC[C@H](NC(=O)CCCCN=[N+]=[N-])C(=O)NOC` [compound 101]: the “Elimination rate” value is recorded as under 3%.

For the compound `CCNC(=O)CC[C@H](NC(=O)CCCCN=[N+]=[N-])C(=O)NOC` [compound 102], the “Elimination rate” value is under 3%.

Regarding `CCCNC(=O)C[C@H](NC(=O)COCCOCCOCCN=[N+]=[N-])C(=O)NO` [compound 107], the “Elimination rate” value is on record as 20%.

For `CCCNC(=O)C[C@H](NC(=O)CCCCN=[N+]=[N-])C(=O)NO` [compound 111], the “Elimination rate” value is given as 21%.
